# According to patent US20220259593A1, “CONTROL OF MAMMALIAN GENE DOSAGE USING CRISPR” (The Regents of the University of California, priority 2019, published 2022):
# Residue numbers refer to the chain shown, from its start.
# B1: cr587 (nucleic acid)
# guide: GTTTAAGAGCTAAGCTGGAAACAGCATAGCAAGTTTAAATAAGCCTAGTCCGTTATCAACTTGAAAAAGTGGCACCGAGTCGGTGCT
# modifications: listed as DNA, chemistry not fully specified
# B2: cr376 (nucleic acid)
# guide: B1 guide with G33C, C44G, C76G, G82C
# modifications: listed as DNA, chemistry not fully specified
# B3: cr339 (nucleic acid)
# guide: B1 guide with G43C, C50G, C51G
# modifications: listed as DNA, chemistry not fully specified
# B4: cr281 (nucleic acid)
# guide: B1 guide with C44G, A74T, C75G, C76G, G77C, G82C, T84A
# modifications: listed as DNA, chemistry not fully specified
# B5: cr664 (nucleic acid)
# guide: B1 guide with G33C, T34C, C44G
# modifications: listed as DNA, chemistry not fully specified
# B6: cr137 (nucleic acid)
# guide: B1 guide with A42G, C44G, G52T, A64C
# modifications: listed as DNA, chemistry not fully specified
# B7: cr052 (nucleic acid)
# guide: B1 guide with G1A, T3G, C44G
# modifications: listed as DNA, chemistry not fully specified
# B8: cr706 (nucleic acid)
# guide: B1 guide with T34G, C44G, C76G, G82C
# modifications: listed as DNA, chemistry not fully specified
# B9: cr512 (nucleic acid)
# guide: B1 guide with T34G, C50G
# modifications: listed as DNA, chemistry not fully specified
# B10: cr744 (nucleic acid)
# guide: B1 guide with T34A, A41C, C44G, A64T
# modifications: listed as DNA, chemistry not fully specified
# B11: cr499 (nucleic acid)
# guide: B1 guide with G33C, C44G, T53A, T80G
# modifications: listed as DNA, chemistry not fully specified
# B12: cr160 (nucleic acid)
# guide: B1 guide with G33T, T34C, C44G
# modifications: listed as DNA, chemistry not fully specified
# B13: cr807 (nucleic acid)
# guide: B1 guide with A41T, C44G, A78T
# modifications: listed as DNA, chemistry not fully specified
# B14: cr967 (nucleic acid)
# guide: B1 guide with G43C, C44G, C51G, C73A, G77A, C81T, G85T
# modifications: listed as DNA, chemistry not fully specified
# B15: cr328 (nucleic acid)
# guide: B1 guide with G33C, C44G, A74C, T84G
# modifications: listed as DNA, chemistry not fully specified
# B16: cr092 (nucleic acid)
# guide: B1 guide with T3G, A6G, C44G
# modifications: listed as DNA, chemistry not fully specified
# B17: cr187 (nucleic acid)
# guide: B1 guide with T34G, C44G, G77A, C81T
# modifications: listed as DNA, chemistry not fully specified
# B18: cr415 (nucleic acid)
# guide: B1 guide with C44G, G52C, A67T
# modifications: listed as DNA, chemistry not fully specified
# B19: cr862 (nucleic acid)
# guide: B1 guide with G29T, A32C, G33C, C44G
# modifications: listed as DNA, chemistry not fully specified
# B20: cr174 (nucleic acid)
# guide: B1 guide with G29C, C44G, T49G, G79T
# modifications: listed as DNA, chemistry not fully specified
# B21: cr518 (nucleic acid)
# guide: B1 guide with G33T, A41G, C44G
# modifications: listed as DNA, chemistry not fully specified
# B22: cr436 (nucleic acid)
# guide: B1 guide with T34G, C44G, A59T, T70A
# modifications: listed as DNA, chemistry not fully specified
# B23: cr295 (nucleic acid)
# guide: B1 guide with T34G, C44G, C73G, G85C
# modifications: listed as DNA, chemistry not fully specified
# B24: cr993 (nucleic acid)
# guide: B1 guide with G33C, C44G, A59T, T70A
# modifications: listed as DNA, chemistry not fully specified
# B25: cr883 (nucleic acid)
# guide: B1 guide with A42G, C44G, C51G
# modifications: listed as DNA, chemistry not fully specified
# B26: cr130 (nucleic acid)
# guide: B1 guide with A32T, G33T, C44G
# modifications: listed as DNA, chemistry not fully specified
# B27: cr272 (nucleic acid)
# guide: B1 guide with A31C, G33C, C44G
# modifications: listed as DNA, chemistry not fully specified
# B28: cr778 (nucleic acid)
# guide: B1 guide with C44G, C51G
# modifications: listed as DNA, chemistry not fully specified
# B29: cr615 (nucleic acid)
# guide: B1 guide with C44G, G72C, C73G, A74T, C75G, T84A, C86G
# modifications: listed as DNA, chemistry not fully specified
# B30: cr081 (nucleic acid)
# guide: B1 guide with G1A, T4A, C44G
# modifications: listed as DNA, chemistry not fully specified
# B31: cr100 (nucleic acid)
# guide: B1 guide with A41G, C44G, T49C
# modifications: listed as DNA, chemistry not fully specified
# B32: cr114 (nucleic acid)
# guide: B1 guide with G43T, C44G, C45T, G48A, C51A, A74C, T84G
# modifications: listed as DNA, chemistry not fully specified
# B33: cr463 (nucleic acid)
# guide: B1 guide with G43C, C44G, C51G, A59C, T70G, G77T, C81A
# modifications: listed as DNA, chemistry not fully specified
# B34: cr584 (nucleic acid)
# guide: B1 guide with A42T, C44G, G52T
# modifications: listed as DNA, chemistry not fully specified
# B35: cr648 (nucleic acid)
# guide: B1 guide with G33C, C44T, C50A
# modifications: listed as DNA, chemistry not fully specified
# B36: cr247 (nucleic acid)
# guide: B1 guide with G33T, C44G, G71A
# modifications: listed as DNA, chemistry not fully specified
# B37: cr352 (nucleic acid)
# guide: B1 guide with C44G, A59C
# modifications: listed as DNA, chemistry not fully specified
# B38: cr054 (nucleic acid)
# guide: B1 guide with G7C, A8C, C44G
# modifications: listed as DNA, chemistry not fully specified
# B39: cr455 (nucleic acid)
# guide: B1 guide with C44G, C60T, T62G, A67C, G69A
# modifications: listed as DNA, chemistry not fully specified
# B40: cr902 (nucleic acid)
# guide: B1 guide with C44G, G72A, C86T
# modifications: listed as DNA, chemistry not fully specified
# B41: cr057 (nucleic acid)
# guide: B1 guide with T2C, T4C, C44G
# modifications: listed as DNA, chemistry not fully specified
# Test system: K562 CRISPRi cells
# Test: Constant region variant library pooled growth screen, K562
# Assay type: cell-based, human
# Conditions: sgRNA constant region variant; activity relative to unmodified constant region cr995; mean CRISPRi activity
# In short: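 Pooled library transduced into K562 CRISPRi cells in duplicate, puromycin-selected, grown at >2000× coverage and sampled after 4 to 8 days. Phenotypes per targeting sequence:constant region pair were normalized to the unmodified-scaffold pairing to give relative activity.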
row,Molecule,Mean relative activity
1,B1,0.009805
2,B2,0.006963
3,B3,0.00717
4,B4,0.006802
5,B5,0.007435
6,B6,0.008516
7,B7,0.009238
8,B8,0.006595
9,B9,0.007414
10,B10,0.006349
11,B11,0.007257
12,B12,0.007879
13,B13,0.00776
14,B14,0.006446
15,B15,0.009384
16,B16,0.006875
17,B17,0.00928
18,B18,0.007281

row,Molecule,Mean relative activity
1,B19,0.007887
2,B20,0.006669
3,B21,0.006889
4,B22,0.008129
5,B23,0.008268
6,B24,0.00969
7,B25,0.006975
8,B26,0.009507
9,B27,0.00638
10,B28,0.0072
11,B29,0.006333
12,B30,0.009207
13,B31,0.005923
14,B32,0.008589
15,B33,0.006799
16,B34,0.005912
17,B35,0.008305
18,B36,0.007159

# Same assay, conditions: sgRNA constant region variants; activity relative to the original, un-modified constant region cr995
row,Molecule,Mean relative activity
1,B37,1.031
2,B38,1.032
3,B39,1.031
4,B40,1.031
5,B41,0.005757
